Laboratory results published in patent US20250019740.
Read-outs that look alike come from different tables or passages of the source.

Legend:
[1] = system: synthetic substrate peptide […]
[2] = system: MBP-ENLYFQS-GST fusion protein
[3] = target: synthetic substrate peptide […]; remark: listed apart in the source

## TEV variant E2 (S3I, P8Q, S31T, A231V on the TEV-EAV template)
[1]
  activity on the peptide in vitro: six selected clones showed higher activity on the peptide […] (SEQ ID NO:33) compared to TEV-EAV

## TEV variant E1 (Q74L, S200N on the TEV-EAV template)
[1]
  activity on the peptide in vitro: six selected clones showed higher activity on the peptide […] (SEQ ID NO:33) compared to TEV-EAV

## uTEV3
[2]
  percent of fusion cleaved after 30 mins at a 1:200 protease to substrate ratio: compared to only 30% cleavage with uTEV3
[1]
  KM: the improved catalytic efficiency in uTEV3 appears to be mainly due to a significant KM decrease

## TEV-S219P
[2]
  percent of fusion protein digested in 40 minutes at 30° C. at a 1:100 ratio: compared to ˜68% for TEV-EAV and TEV-S219P

## TEV variant S8 (A173D, V219K on the TEV-EAV template)
[1]
  activity on the peptide in vitro: six selected clones showed higher activity on the peptide […] (SEQ ID NO:33) compared to TEV-EAV

## TEV variant S7 (E79G, S219R on the TEV-EAV template)
[1]
  activity on the peptide in vitro: six selected clones showed higher activity on the peptide […] (SEQ ID NO:33) compared to TEV-EAV

## TEV variant E5 (K6M, S15L on the TEV-EAV template)
[1]
  activity on the peptide in vitro: six selected clones showed higher activity on the peptide […] (SEQ ID NO:33) compared to TEV-EAV

## TEV variant S6 (E79S, A173G, V219S on the TEV-EAV template)
[1]
  activity on the peptide in vitro: six selected clones showed higher activity on the peptide […] (SEQ ID NO:33) compared to TEV-EAV

B1: enhanced TEV "eTEV" mutant TEV protease (S3I, P8Q, S31T, E79G, T173A, S219R, A231V) (protein)
chain: ILFKGQRDYNPISSTICHLTNESDGHTTTLYGIGFGPFIITNKHLFRRNNGTLLVQSLHGVFKVKNTTTLQQHLIDGRDMIIIRMPKDFPPFPQKLKFREPQREERICLVTTNFQTKSMSSMVSDTSCTFPSSDGIFWKHWIQTKDGQCGSPLVSTRDGFIVGIHSASNFANTNNYFTSVPKNFMELLTNQEAQQWVSGWRLNADSVLWGGHKVFMRKPEEPFQPVKEVTQLMRRRRR
[3]
  KM: KM of eTEV remained unchanged at 65 µM with that of TEV-EAV
  fold decreased KM compared to TEV-S219P: 2.77-fold decreased KM
  fold improvement in catalytic efficiency (kcat/KM) compared to TEV-EAV: 2-fold improvement in catalytic efficiency (kcat/KM) compared to TEV-EAV
  fold increase in catalytic efficiency relative to the parent TEV-S219P: ~8-fold overall increase in catalytic efficiency relative to the parent TEV-S219P
  fold increased catalytic turnover rate (kcat) compared to TEV-S219P: 2.73-fold increased catalytic turnover rate (kcat)
  turnover rate (kcat): the turnover rate (kcat) was improved from 0.17 s^-1 to 0.41 s^-1

B2: TEV-EAV, triple mutant TEV variant (G79E, T173A, S219V) (protein)
chain: GESLFKGPRDYNPISSTICHLTNESDGHTTSLYGIGFGPFIITNKHLFRRNNGTLLVQSLHGVFKVKNTTTLQQHLIDERDMIIIRMPKDFPPFPQKLKFREPQREERICLVTNFQTKSMSSMVSDTSCTFPSSDGIFWKHWIQTKDGQCGSPLVSTRDGFIVGIHSASNFANTNNYFTSVPKNFMELLTNQEAQQWVSGWRLNADSVLWGGHKVFMVKPEEPFQPVKEATQLM
[3]
  KM: KM of eTEV remained unchanged at 65 µM with that of TEV-EAV
  turnover rate (kcat): the turnover rate (kcat) was improved from 0.17 s^-1 to 0.41 s^-1
